# Assay results as given in the domain aggregation screens of Martell et al. (2025).
# Test: soluble fraction after stress (log2 fold change); higher = more stays soluble; pooled small domains, quantitative proteomics
# Settings: stress: pH 4
# Procedure, shortened: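 Values are on a log2 scale, where higher means more of the domain stayed soluble after pH 4 stress. They are fold changes in the soluble amount of each domain from pooled custom libraries, measured by high-throughput quantitative proteomics. The fold change is taken to reflect aggregation propensity.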
row,Sequence,soluble fraction (log2)
1,HMPKKLIWERTTSKLQLYITQDRYELKTPLMTIPFTSKSKMMVYLQQRYHLDMQEYRQIYDAG,0.0815
2,HMPKMDGLTVMEQVNQDHFVNKRPYFIVITAVGQEKITEDAFNKGANYYVMKPFNNNMLLERIKSVRK,0.0916
3,HMPKYLNIYHELAQRIQEGALPAETKLPSETELMQEFEASRGTVRKAIDALQEKGFVRKHQGKGVFVLSQ,0.152
4,HMPLDYNELRSISPKAARQAILQILAANKGNVSATAKLLGVSRKTVYKAMHKKASGNLDDTSRAPK,0.13
5,HMPLITAIELDSISARSFQFNTQSGSTYFIEGSTDLKSWDVIAEVKATDSTTTYEDHRKIYHEAYFYRVRL,-1.55
6,HMPLITDIKIQVKNTEKVSLFVDGKYSFSLTISQLAEHKILKTNQEISAKQVAEFKKLSNLTNLYIRIVG,-0.296
7,HMPLITLSAEIQSEQIGQRLDQTLAELFPEYSRSRLKTWIEADLVKLNNQIVNIPREKVLGGEHVEITVDI,-0.792
8,HMPLNRFLNLPHEDKERVLLIAKKQFSTHGYDAMSLNLLLKELDISKGQFYYWFEDKADLFFTVL,0.0543
9,HMPLRPNQRQFIHLMVYQGLDRNEAYAQANNKVLTEENYESIRTAAAKTFYTPHVNNYYHALMEEIRDRE,-0.404
10,HMPLSVRQRMSDILSNLKTSDFTNFADLFDPKEGRTGITVTFIAILELLREFLIEVVQSDHYQPLHVRAAS,0.115
11,HMPLTAASLQTYLRGVDYPASKQDLIAHARKSDAPEDAITVLEQYSEQTYRSAADVSAEFGS,-0.156
12,HMPLTEMAVRKHLSAELAQKGYTIDPRALEILLQRTNTNLTAIANELPKLLLVAEDKQITVNEVSAM,-0.1
13,HMPLTKKLETLFSLFPKYEKELKKKGVTRIHVWANYKEEYPDGIGRSQFIHYYSFWKKQVSP,-0.045
14,HMPLVIIRGIEGVFSSEEKAEAIRKVTDALVSVKGENVRGFAWVVFEEVKSGDWGIGGESITAEKVIMSL,-0.39
15,HMPMDDETWDALSLFAYKRYARENGWPLMIGAEALRDTFASYFPLDSSTWQDRSSHYLTYQDGIYTRT,-0.753
16,HMPMDYFELFNIPRNANRETIKKILDQEYEKYRARVVSPVLEIRHEAELMLVEISKAKQVLLG,-0.223
17,HMPMHPEDLKKLVSIEMPFGKHKGRIIADLPGNYLNWFAREGFPPGEIGRLLQLMQEIDHNGLSDLLKPLR,-0.645
18,HMPMNISDIIKQAREELGMTQEDLAERLEVSRQAVSKWELGASVPSPENLRLLEELLGVELPAP,-0.635

row,Sequence,soluble fraction (log2)
1,HMPNFDPSYILDFGDVIQLQLVGQKNQILEIPILRDGSVNLPDIGKIFLSGMSLEEATKIIKDTYSA,-1.28
2,HMPNGEAYQRFTYENDILEGRFEEWDSLGTDIVKGDYTAGVRHKKWLYYDSEGRRDKFVFLDMDSI,-0.345
3,HMPNNNDIVLDRVSFGYHEKEVLHGIDMTIREGTVNALVGPSGSGKSTIAKLIAGLWDVDGGSISF,0.137
4,HMPNPSAGRVHIDALLPFDRVEVTDMQGSLLLDHSFSPRRAVDLDLNARGTLLYTLWSKGHLLGKGRVVR,0.213
5,HMPNQLLELVEMEIRDLLNEYEFPGDDTPIIQGSALKALEDPMGPWGDKIMDLMDAVDSYIPDPE,-1.46
6,HMPPAIKTLMFMIQNKSLLKSPKQLAVVQQQLKKIKGVRDVLILLEEGKVMLKVNKHETIHEASIIRLLGG,0.00198
7,HMPPALTELLSVRTNASGTIDYLLPDRSAGLRVENGSKYSGMVPDSIYRLVAIYEIKDAKEPSAYIYTI,-0.223
8,HMPPFDDILAEYYEPLYRHVRRMVVSHDDAKDVMQEAMLRIFQGLDGLKDPSAVRTWVWRIATNEALRH,-1.76
9,HMPPPVDLDKKGYKLRGIVLEDGRSAAFVFVPAEKRVVVLRENASGPVRLLETGMRRIRLQTPEGAGYLEL,-0.259
10,HMPPQPATQNTKAQVMQLAREKELMAGEGRGANVEALEKFANEHGISLRGMTEEQAEQLVKLLMEYTP,0.19
11,HMPPRFVPATGADLRRWLDVSGLTAEAAGDLLGVSGARFRQWLSRYRSAPLPDPVRALLVALLRP,-0.156
12,HMPPSRFNELSMWFQEQLTEAGLKVDSGALKMLIEWLGQDQARLPSIIEVLVSTYGTKKKLTVDEIEPFL,-1.02
13,HMPPTSADGIEKYLASGMIRGVGPVYAKKLVSAFGDKVFDIIEAAPHQLQEVEGIGRVRAASILAAWAEQ,-0.0654
14,HMPQLEDLEPLDSSGMVRRDGPHLVLAVGRHRGRHLEEVRDSDPSYLHWLLSPKGIEDIQAKEDIKTYLNL,-0.302
15,HMPQLVGDVDGDGRVSVTDGEWIRASYGALPWYAGWRAAADLDGSRKIDVVDLELLRTKMGN,-0.772
16,HMPRIYSITINPEKIRTVIGPGGKVIKDITAKTGTKIEIDDSGKVDIFSPDEEHARMAVEIINTLTEE,-0.221
17,HMPRKYFPFYFTFRETAQTMPPRLRAVFYEAIIEYGTTGKEPTLPKSIAGYWPLVKPTLDSAKAHYDAG,-0.0316
